Source: article PMC12638309

How the values were obtained:
[1] = molecular target: T1, Ste2, native ɑ-factor pheromone-sensing mating GPCR (S. cerevisiae) (UniProt D6VTK4)
T1 sequence: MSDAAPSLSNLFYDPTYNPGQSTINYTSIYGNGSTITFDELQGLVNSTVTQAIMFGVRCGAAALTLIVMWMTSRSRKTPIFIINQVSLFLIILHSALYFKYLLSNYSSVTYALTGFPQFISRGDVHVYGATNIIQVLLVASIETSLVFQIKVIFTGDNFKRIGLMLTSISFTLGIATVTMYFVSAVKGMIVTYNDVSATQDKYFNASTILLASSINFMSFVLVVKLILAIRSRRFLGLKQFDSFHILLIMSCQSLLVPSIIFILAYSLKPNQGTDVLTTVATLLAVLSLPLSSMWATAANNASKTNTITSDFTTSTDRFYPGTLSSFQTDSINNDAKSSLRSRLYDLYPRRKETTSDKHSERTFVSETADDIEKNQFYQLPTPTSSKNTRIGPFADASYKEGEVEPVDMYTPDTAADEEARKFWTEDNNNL

[2] = molecular target: T1, Ste2, native ɑ-factor pheromone-sensing mating GPCR (S. cerevisiae); remark: listed apart in the source
[3] = molecular target: T2, Mam2, fungal peptide-sensing GPCR (P-factor) (UniProt Q00619)
T2 sequence: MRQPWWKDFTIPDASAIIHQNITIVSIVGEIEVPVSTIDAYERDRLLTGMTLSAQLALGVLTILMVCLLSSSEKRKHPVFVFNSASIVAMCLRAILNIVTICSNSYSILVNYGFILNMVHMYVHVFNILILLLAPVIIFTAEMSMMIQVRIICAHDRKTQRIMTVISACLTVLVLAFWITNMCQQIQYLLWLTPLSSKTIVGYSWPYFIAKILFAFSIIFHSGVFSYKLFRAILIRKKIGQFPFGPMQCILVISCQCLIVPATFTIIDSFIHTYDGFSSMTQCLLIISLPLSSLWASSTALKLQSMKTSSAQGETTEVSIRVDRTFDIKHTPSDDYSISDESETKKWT

Binder	fold change of surface-displayed CD19 (P FUS1-CD19 output of the pheromone response pathway, flow cytometry) in yeast expressing Ste2 (DIX45), 0, 0.01 and 1 µM ɑ-factor, 20 h, pH 5 [1] [fold]	fold up-regulation of surface-displayed CD19 from P FIG1 in Ste2 yeast, 0-100 µM ɑ-factor, 20 h [2] [fold]	fold up-regulation of surface-displayed CD19 from P FUS1 in Ste2 yeast, 0-100 µM ɑ-factor, 20 h [2] [fold]	fold up-regulation of surface-displayed CD19 from P MFA2 in Ste2 yeast, 0-100 µM ɑ-factor, 20 h [2] [fold]	fold up-regulation of surface-displayed CD19 from P TDH3 (pheromone response pathway boost) in Ste2 yeast, 0-100 µM ɑ-factor, 20 h [2] [fold]	fold change of surface-displayed CD19 (P FUS1-CD19 output of the pheromone response pathway, flow cytometry) in yeast expressing Mam2 (DIX60), 0, 1 and 10 µM P-factor, 20 h, pH 5 [3] [fold]
WHWLQLKPGQPMY [ɑ-factor]	312	630	774	323	3.1	
TYADFLRAYQSWNTFVNPDRPNL [P-factor]						249
